According to patent US20150344540A1, “NOVEL GLP-1 RECEPTOR AGONISTS WITH CHOLESTEROL EFFLUX ACTIVITY” (NOVO NORDISK A/S, priority 2012, published 2015):
Where no end group is shown, it is not given here. [ ]: non-standard residue; d: D form. Aib = CC(C)(N)C(=O)O

Each binder was assayed against human GLP-1 receptor (human, UniProt P43220) (assay: cell-based or functional assay).

Row | Binder | CRE luciferase EC50, 0% HSA [nM] | CRE luciferase EC50, 1% HSA [nM]
1 | H[Aib]EGTFTSDVSSYLEGKRAREFIAWLVEK[Aib]KEFL-NH2 (N-terminus assumed; SMILES CC[C@H](C)[C@H](NC(=O)[C@H](Cc1ccccc1)NC(=O)[C@H](CCC(=O)O)NC(=O)[C@H](CCCNC(=N)N)NC(=O)[C@H](C)NC(=O)[C@H](CCCNC(=N)N)NC(=O)[C@H](CCCCN)NC(=O)CNC(=O)[C@H](CCC(=O)O)NC(=O)[C@H](CC(C)C)NC(=O)[C@H](Cc1ccc(O)cc1)NC(=O)[C@H](CO)NC(=O)[C@H](CO)NC(=O)[C@@H](NC(=O)[C@H](CC(=O)O)NC(=O)[C@H](CO)NC(=O)[C@@H](NC(=O)[C@H](Cc1ccccc1)NC(=O)[C@@H](NC(=O)CNC(=O)[C@H](CCC(=O)O)NC(=O)C(C)(C)NC(=O)[C@@H](N)Cc1c[nH]cn1)[C@@H](C)O)[C@@H](C)O)C(C)C)C(=O)N[C@@H](C)C(=O)N[C@@H](Cc1c[nH]c2ccccc12)C(=O)N[C@@H](CC(C)C)C(=O)N[C@H](C(=O)N[C@@H](CCC(=O)O)C(=O)N[C@@H](CCCCN)C(=O)NC(C)(C)C(=O)N[C@@H](CCCCN)C(=O)N[C@@H](CCC(=O)O)C(=O)N[C@@H](Cc1ccccc1)C(=O)N[C@@H](CC(C)C)C(N)=O)C(C)C) [[Aib8,Lys23,Arg24,Arg26,Glu34,Lys35,Aib36,Lys37]-GLP-1-(7-37)-peptidyl-Glu-Phe-Leu amide] | 0.383 | 0.138
2 | H[Aib]EGTFTSDVSSYLEGE[Aib]VKEFI[Aib]WLVEK[Aib]KEFL-NH2 (N-terminus assumed; SMILES CC[C@H](C)[C@H](NC(=O)[C@H](Cc1ccccc1)NC(=O)[C@H](CCC(=O)O)NC(=O)[C@H](CCCCN)NC(=O)[C@@H](NC(=O)C(C)(C)NC(=O)[C@H](CCC(=O)O)NC(=O)CNC(=O)[C@H](CCC(=O)O)NC(=O)[C@H](CC(C)C)NC(=O)[C@H](Cc1ccc(O)cc1)NC(=O)[C@H](CO)NC(=O)[C@H](CO)NC(=O)[C@@H](NC(=O)[C@H](CC(=O)O)NC(=O)[C@H](CO)NC(=O)[C@@H](NC(=O)[C@H](Cc1ccccc1)NC(=O)[C@@H](NC(=O)CNC(=O)[C@H](CCC(=O)O)NC(=O)C(C)(C)NC(=O)[C@@H](N)Cc1c[nH]cn1)[C@@H](C)O)[C@@H](C)O)C(C)C)C(C)C)C(=O)NC(C)(C)C(=O)N[C@@H](Cc1c[nH]c2ccccc12)C(=O)N[C@@H](CC(C)C)C(=O)N[C@H](C(=O)N[C@@H](CCC(=O)O)C(=O)N[C@@H](CCCCN)C(=O)NC(C)(C)C(=O)N[C@@H](CCCCN)C(=O)N[C@@H](CCC(=O)O)C(=O)N[C@@H](Cc1ccccc1)C(=O)N[C@@H](CC(C)C)C(N)=O)C(C)C) [[Aib8,Glu23,Aib24,Val25,Aib30,Glu34,Lys35,Aib36,Lys37]-GLP-1-(7-37)-peptidyl-Glu-Phe-Leu amide] | 0.396 | 0.193
3 | HXEGTFTSDVSSYLEGQAAKEFIAWLVKKXKEFL (Aib at 8, 36; C-terminal amide) [[Aib8,Lys35,Aib36,Lys37]-GLP-1-(7-37)-peptidyl-Glu-Phe-Leu amide] | 0.256 | 0.084
4 | HXEGTFTSDVSSYLEGQAAKEFIAWLVKKXGEFL (Aib at 8, 36; C-terminal amide) [[Aib8,Lys35,Aib36]-GLP-1-(7-37)-peptidyl-Glu-Phe-Leu amide] | 0.045 | 0.015
5 | H[Aib]EGTFTSDLSKQMEGEAVREFIEWLKNK[Aib]LEFLELL-NH2 (N-terminus assumed; SMILES CC[C@H](C)[C@H](NC(=O)[C@H](Cc1ccccc1)NC(=O)[C@H](CCC(=O)O)NC(=O)[C@H](CCCNC(=N)N)NC(=O)[C@@H](NC(=O)[C@H](C)NC(=O)[C@H](CCC(=O)O)NC(=O)CNC(=O)[C@H](CCC(=O)O)NC(=O)[C@H](CCSC)NC(=O)[C@H](CCC(N)=O)NC(=O)[C@H](CCCCN)NC(=O)[C@H](CO)NC(=O)[C@H](CC(C)C)NC(=O)[C@H](CC(=O)O)NC(=O)[C@H](CO)NC(=O)[C@@H](NC(=O)[C@H](Cc1ccccc1)NC(=O)[C@@H](NC(=O)CNC(=O)[C@H](CCC(=O)O)NC(=O)C(C)(C)NC(=O)[C@@H](N)Cc1c[nH]cn1)[C@@H](C)O)[C@@H](C)O)C(C)C)C(=O)N[C@@H](CCC(=O)O)C(=O)N[C@@H](Cc1c[nH]c2ccccc12)C(=O)N[C@@H](CC(C)C)C(=O)N[C@@H](CCCCN)C(=O)N[C@@H](CC(N)=O)C(=O)N[C@@H](CCCCN)C(=O)NC(C)(C)C(=O)N[C@@H](CC(C)C)C(=O)N[C@@H](CCC(=O)O)C(=O)N[C@@H](Cc1ccccc1)C(=O)N[C@@H](CC(C)C)C(=O)N[C@@H](CCC(=O)O)C(=O)N[C@@H](CC(C)C)C(=O)N[C@@H](CC(C)C)C(N)=O) | 0.506 | 0.26
6 | H[Aib]EGTFTSDVSSYLEGEAVKKFIAWLVEK[Aib]KEFL-NH2 (N-terminus assumed; SMILES CC[C@H](C)[C@H](NC(=O)[C@H](Cc1ccccc1)NC(=O)[C@H](CCCCN)NC(=O)[C@H](CCCCN)NC(=O)[C@@H](NC(=O)[C@H](C)NC(=O)[C@H](CCC(=O)O)NC(=O)CNC(=O)[C@H](CCC(=O)O)NC(=O)[C@H](CC(C)C)NC(=O)[C@H](Cc1ccc(O)cc1)NC(=O)[C@H](CO)NC(=O)[C@H](CO)NC(=O)[C@@H](NC(=O)[C@H](CC(=O)O)NC(=O)[C@H](CO)NC(=O)[C@@H](NC(=O)[C@H](Cc1ccccc1)NC(=O)[C@@H](NC(=O)CNC(=O)[C@H](CCC(=O)O)NC(=O)C(C)(C)NC(=O)[C@@H](N)Cc1c[nH]cn1)[C@@H](C)O)[C@@H](C)O)C(C)C)C(C)C)C(=O)N[C@@H](C)C(=O)N[C@@H](Cc1c[nH]c2ccccc12)C(=O)N[C@@H](CC(C)C)C(=O)N[C@H](C(=O)N[C@@H](CCC(=O)O)C(=O)N[C@@H](CCCCN)C(=O)NC(C)(C)C(=O)N[C@@H](CCCCN)C(=O)N[C@@H](CCC(=O)O)C(=O)N[C@@H](Cc1ccccc1)C(=O)N[C@@H](CC(C)C)C(N)=O)C(C)C) [[Aib8,Glu23,Val25,Lys27,Glu34,Lys35,Aib36,Lys37]-GLP-1-(7-37)-peptidyl-Glu-Phe-Leu amide] | 0.325 | 0.097
7 | H[Aib]EGTFTSDVSSYLEGERVKEFIAWLVEK[Aib]KEFL-NH2 (N-terminus assumed; SMILES CC[C@H](C)[C@H](NC(=O)[C@H](Cc1ccccc1)NC(=O)[C@H](CCC(=O)O)NC(=O)[C@H](CCCCN)NC(=O)[C@@H](NC(=O)[C@H](CCCNC(=N)N)NC(=O)[C@H](CCC(=O)O)NC(=O)CNC(=O)[C@H](CCC(=O)O)NC(=O)[C@H](CC(C)C)NC(=O)[C@H](Cc1ccc(O)cc1)NC(=O)[C@H](CO)NC(=O)[C@H](CO)NC(=O)[C@@H](NC(=O)[C@H](CC(=O)O)NC(=O)[C@H](CO)NC(=O)[C@@H](NC(=O)[C@H](Cc1ccccc1)NC(=O)[C@@H](NC(=O)CNC(=O)[C@H](CCC(=O)O)NC(=O)C(C)(C)NC(=O)[C@@H](N)Cc1c[nH]cn1)[C@@H](C)O)[C@@H](C)O)C(C)C)C(C)C)C(=O)N[C@@H](C)C(=O)N[C@@H](Cc1c[nH]c2ccccc12)C(=O)N[C@@H](CC(C)C)C(=O)N[C@H](C(=O)N[C@@H](CCC(=O)O)C(=O)N[C@@H](CCCCN)C(=O)NC(C)(C)C(=O)N[C@@H](CCCCN)C(=O)N[C@@H](CCC(=O)O)C(=O)N[C@@H](Cc1ccccc1)C(=O)N[C@@H](CC(C)C)C(N)=O)C(C)C) [[Aib8,Glu23,Arg24,Val25,Glu34,Lys35,Aib36,Lys37]-GLP-1-(7-37)-peptidyl-Glu-Phe-Leu amide] | 1.08 | 0.273
8 | H[Aib]EGTFTSDVSSYLEGEKVKEFIEWLVEK[Aib]KEFL-NH2 (N-terminus assumed; SMILES CC[C@H](C)[C@H](NC(=O)[C@H](Cc1ccccc1)NC(=O)[C@H](CCC(=O)O)NC(=O)[C@H](CCCCN)NC(=O)[C@@H](NC(=O)[C@H](CCCCN)NC(=O)[C@H](CCC(=O)O)NC(=O)CNC(=O)[C@H](CCC(=O)O)NC(=O)[C@H](CC(C)C)NC(=O)[C@H](Cc1ccc(O)cc1)NC(=O)[C@H](CO)NC(=O)[C@H](CO)NC(=O)[C@@H](NC(=O)[C@H](CC(=O)O)NC(=O)[C@H](CO)NC(=O)[C@@H](NC(=O)[C@H](Cc1ccccc1)NC(=O)[C@@H](NC(=O)CNC(=O)[C@H](CCC(=O)O)NC(=O)C(C)(C)NC(=O)[C@@H](N)Cc1c[nH]cn1)[C@@H](C)O)[C@@H](C)O)C(C)C)C(C)C)C(=O)N[C@@H](CCC(=O)O)C(=O)N[C@@H](Cc1c[nH]c2ccccc12)C(=O)N[C@@H](CC(C)C)C(=O)N[C@H](C(=O)N[C@@H](CCC(=O)O)C(=O)N[C@@H](CCCCN)C(=O)NC(C)(C)C(=O)N[C@@H](CCCCN)C(=O)N[C@@H](CCC(=O)O)C(=O)N[C@@H](Cc1ccccc1)C(=O)N[C@@H](CC(C)C)C(N)=O)C(C)C) [[Aib8,Glu23,Lys24,Val25,Glu30,Glu34,Lys35,Aib36,Lys37]-GLP-1-(7-37)-peptidyl-Glu-Phe-Leu amide] | 0.716 | 0.164
9 | H[Aib]EGTFTSDVSSYLEGEAVKEFIWWLVEK[Aib]KEFL-NH2 (N-terminus assumed; SMILES CC[C@H](C)[C@H](NC(=O)[C@H](Cc1ccccc1)NC(=O)[C@H](CCC(=O)O)NC(=O)[C@H](CCCCN)NC(=O)[C@@H](NC(=O)[C@H](C)NC(=O)[C@H](CCC(=O)O)NC(=O)CNC(=O)[C@H](CCC(=O)O)NC(=O)[C@H](CC(C)C)NC(=O)[C@H](Cc1ccc(O)cc1)NC(=O)[C@H](CO)NC(=O)[C@H](CO)NC(=O)[C@@H](NC(=O)[C@H](CC(=O)O)NC(=O)[C@H](CO)NC(=O)[C@@H](NC(=O)[C@H](Cc1ccccc1)NC(=O)[C@@H](NC(=O)CNC(=O)[C@H](CCC(=O)O)NC(=O)C(C)(C)NC(=O)[C@@H](N)Cc1c[nH]cn1)[C@@H](C)O)[C@@H](C)O)C(C)C)C(C)C)C(=O)N[C@@H](Cc1c[nH]c2ccccc12)C(=O)N[C@@H](Cc1c[nH]c2ccccc12)C(=O)N[C@@H](CC(C)C)C(=O)N[C@H](C(=O)N[C@@H](CCC(=O)O)C(=O)N[C@@H](CCCCN)C(=O)NC(C)(C)C(=O)N[C@@H](CCCCN)C(=O)N[C@@H](CCC(=O)O)C(=O)N[C@@H](Cc1ccccc1)C(=O)N[C@@H](CC(C)C)C(N)=O)C(C)C) [[Aib8,Glu23,Val25,Trp30,Glu34,Lys35,Aib36,Lys37]-GLP-1-(7-37)-peptidyl-Glu-Phe-Leu amide] | 0.157 | 0.054
